Measurements published in PMC5607241, “Chimeric 14-3-3 proteins for unraveling interactions with intrinsically disordered partners” (Scientific Reports, 2017).
“And” between values parts separate entries of the source, which are not always exact repeats. Equal entries are not always repeated. Values belong to the binder of their own block, whether it stands above or below them. Where no end group is shown, it is not given here. [ ]: non-standard residue; d: D form. pS = N[C@@H](COP(=O)(O)O)C(=O)O

Assays:
[1] = molecular target: the molecule itself; experiment: SEC; analytical SEC, calibrated Superdex 200 Increase 10/300, 20 mM Tris-HCl pH 7.6, 150 mM NaCl, 0.1 mM EDTA, 3 mM β-mercaptoethanol, 1.2 mL/min; samples pre-incubated 30 min at room temperature; hydrodynamic radii from column calibration
[2] = molecular target: T1, 14-3-3σ∆C mutant Clu3 (core of the chimeras) (human, UniProt P31947 1-231, 75EEK77 → 75AAA77); experiment: crystal structure; pCH3 (bi-directional peptide swap), 0.1 M bis-Tris-propane pH 6.5, 0.2 M (NH4)2SO4, 25% PEG 3350, 20 °C, 3.9 Å, PDB 5OMA; details: both partners purified
T1 construct: three extra residues left at the N terminus after 3C cleavage of the hexahistidine tag; 14-3-3σ, human, C-terminally truncated (14-3-3σ∆C, residues 1-231), surface-entropy reduction mutant Clu3; Stood in the structures joined on one chain with the peptides (m1-m3); written as a molecule of its own for the pairs core/peptide; also called 14-3-3σ Clu3; 14-3-3σ∆C-Clu3; source: E. coli, as the …
T1 sequence: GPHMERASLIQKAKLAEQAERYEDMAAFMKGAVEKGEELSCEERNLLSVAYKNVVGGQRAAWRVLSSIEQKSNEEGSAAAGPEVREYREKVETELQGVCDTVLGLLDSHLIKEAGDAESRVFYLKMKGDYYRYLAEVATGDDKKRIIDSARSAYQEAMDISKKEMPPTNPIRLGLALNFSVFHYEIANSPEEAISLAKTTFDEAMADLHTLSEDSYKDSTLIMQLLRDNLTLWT

[3] = molecular target: the molecule itself; experiment: crystal structure; pCH2 (mono-directional peptide swap), 0.1 M bis-Tris pH 6.5, 2 M (NH4)2SO4, 20 °C, 3.2 Å, PDB 5OM0
[4] = molecular target: the molecule itself; experiment: crystal structure; pCH3 (bi-directional peptide swap), 0.1 M bis-Tris-propane pH 6.5, 0.2 M (NH4)2SO4, 25% PEG 3350, 20 °C, 3.9 Å, PDB 5OMA
[5] = molecular target: T1, 14-3-3σ∆C mutant Clu3 (core of the …); experiment: crystal structure; pCH2 (mono-directional peptide swap), 0.1 M bis-Tris pH 6.5, 2 M (NH4)2SO4, 20 °C, 3.2 Å, PDB 5OM0; details: both partners purified

B1: 14-3-3σ Clu3 – HSPB6 phosphopeptide chimera, phosphorylated (pCH1) (other)
chain: GPHMERASLIQKAKLAEQAERYEDMAAFMKGAVEKGEELSCEERNLLSVAYKNVVGGQRAAWRVLSSIEQKSNEEGSAAAGPEVREYREKVETELQGVCDTVLGLLDSHLIKEAGDAESRVFYLKMKGDYYRYLAEVATGDDKKRIIDSARSAYQEAMDISKKEMPPTNPIRLGLALNFSVFHYEIANSPEEAISLAKTTFDEAMADLHTLSEDSYKDSTLIMQLLRDNLTLWTGSGSLRRASAPL
modifications: phosphoserine at Ser16 of the HSPB6 peptide (RRApS16APL)
notes: three extra residues left at the N terminus after 3C cleavage of the hexahistidine tag; 14-3-3σ, human, C-terminally truncated (14-3-3σ∆C, residues 1-231), surface-entropy reduction mutant Clu3; flexible linker; HSPB6 peptide RRAS16APL with the natural Leu that precedes it (the Leu is told in words; Dimer through the 14-3-3σ core; also called CH1 co-expressed with PKA; 14-3-3/HSPB6 chimera CH1; …)
- stoichiometry N [1]: 2 and 4

- binding result [2]: binds
B2: phosphorylated linker GSGpSLRR of pCH3 (peptide)
peptide: GSG[pS]LRR
notes: GSGS linker, the Leu kept from CH1 and the first two Arg of the StARD1 peptide; the stretch that was traced in the groove; also called cross-patching peptide of pCH3; source: E. coli, as part of the C-terminal tail of chimera pCH3, phosphorylated by co-expressed PKA

B3: 14-3-3σ Clu3 – Gli1 phosphopeptide chimera, phosphorylated (pCH2) (other)
chain: GPHMERASLIQKAKLAEQAERYEDMAAFMKGAVEKGEELSCEERNLLSVAYKNVVGGQRAAWRVLSSIEQKSNEEGSAAAGPEVREYREKVETELQGVCDTVLGLLDSHLIKEAGDAESRVFYLKMKGDYYRYLAEVATGDDKKRIIDSARSAYQEAMDISKKEMPPTNPIRLGLALNFSVFHYEIANSPEEAISLAKTTFDEAMADLHTLSEDSYKDSTLIMQLLRDNLTLWTGSGSLRRASDPAQA
modifications: phosphoserine at Ser640 of the Gli peptide
notes: three extra residues left at the N terminus after 3C cleavage of the hexahistidine tag; 14-3-3σ, human, C-terminally truncated (14-3-3σ∆C, residues 1-231), surface-entropy reduction mutant Clu3; Gli peptide RRAS640DPAQA, said to be conserved in Gli1, Gli2 and Gli3; the other grooves hold sulfate; also called 14-3-3σ fusion with Gli phosphopeptide; source: E. coli, co-expressed with His-tagged …
- binding result [3]: binds

B4: 14-3-3σ Clu3 – StARD1 phosphopeptide chimera, phosphorylated (pCH3) (other)
chain: GPHMERASLIQKAKLAEQAERYEDMAAFMKGAVEKGEELSCEERNLLSVAYKNVVGGQRAAWRVLSSIEQKSNEEGSAAAGPEVREYREKVETELQGVCDTVLGLLDSHLIKEAGDAESRVFYLKMKGDYYRYLAEVATGDDKKRIIDSARSAYQEAMDISKKEMPPTNPIRLGLALNFSVFHYEIANSPEEAISLAKTTFDEAMADLHTLSEDSYKDSTLIMQLLRDNLTLWTGSGSLRRSSLLGSR
modifications: phosphoserine at the second Ser of the GSGS linker (-GSGpS-); phosphorylation status of the target and neighbouring serines (RRSSLLGSR) not known
notes: three extra residues left at the N terminus after 3C cleavage of the hexahistidine tag; 14-3-3σ, human, C-terminally truncated (14-3-3σ∆C, residues 1-231), surface-entropy reduction mutant Clu3; StARD1 peptide around Ser57 (RRSS57LLGS); also called 14-3-3σ fusion with StARD1/BimEL phosphopeptide; source: E. coli, co-expressed with His-tagged catalytic subunit of mouse PKA, purified (subtractive …)
- binding result [4]: binds

- binding result [5]: binds
B5: Gli phosphopeptide (RRApS640DPAQA), as fused in pCH2 (peptide)
peptide: RRA[pS]DPAQA
notes: Gli peptide RRAS640DPAQA, said to be conserved in Gli1, Gli2 and Gli3; Tethered through GSGSL to Thr231 of 14-3-3σ Clu3; also called Gli1 phosphopeptide; Gli-derived phosphopeptide; source: E. coli, as the C-terminal part of chimera pCH2, phosphorylated by co-expressed PKA
